This series is classed as in vivo, human. The note with it: mean of the five repeat experiments; subcutaneous; controller PK setting SLOW.

For the substance Insulin lispro, the “Inferred lispro PK t95%, Mean” value was found to be 8.9 h and the “Inferred lispro PK tmax, Mean” value was 1.48 h.

For the origin of these results see article PMC4242106 (Science translational medicine, 2010).
